Results reported in patent US20160177397, “APTAMER FOR DETECTION OF ALPHA-METHYLACYL-COA RACEMASE AND DIAGNOSTIC KIT THEREOF” (NATIONAL TAIWAN UNIVERSITY, published 2016).

Tests used:
[1] = target: T1, Human serum albumin (HSA) (Homo sapiens, UniProt P02768 P02768:25-609); test: ELAA, 0.5 uM aptamer, 0.2 uM protein; conditions: tags: Sigma-Aldrich; label: biotin; stem-loops, B-form-like CD
Method: (§1) Enzyme-linked aptamer assays with typical black opaque 96-well polystyrene microtiter plates that resembled ELISA assays were carried out for (1) assessment of the affinity and specificity of the selected AMACR binding aptamers and (2) proof-of-concept fluorescent AMACR detection using aptamers. For the first task, varied concentrations of aptamers were tested with a constant protein concentration ([…]); for the second task, varied concentrations of proteins were detected using a constant aptamer concentration (500 nM). Both used the following ELAA protocol unless otherwise noted. For protein coating, AMACR diluted in 0.05 M sodium carbonate buffer (pH9.6) was added to the wells of the plates (100 μL/well) and incubated at 4° C. overnight. After incubation, the wells were washed three times with 200 μL/well of selection buffer containing 0.05% Tween 20. For blocking, each AMACR-coated well was added with 200 μL of 3 wt % BSA in the selection buffer containing 0.05% Tween 20 and was then incubated at 37° C. for 2 h. Afterward, wells were washed as previously described. Before protein assays, biotin-labeled aptamer sequences were suspended in the selection buffer, heated to 95° C. for 5 min, and gradually cooled to 25° C. Then each protein-coated well was added with 100 μL of aptamer solution (in the selection buffer) and was incubated at room temperature for 1 h followed by the same wash procedure. After that, each well was added with two drops (ca. 100 μL) of an alkaline phosphatase-conjugated streptavidin (Strep-AP) solution (0.003 mg/mL) (Abcam) and incubated at room temperature for 30 min followed by the washes. For fluorescent signal development, each well was added with 100 μL of AttoPhos® AP fluorescent substrate solution (Promega) and incubated in dark for at least 15 min. Finally, the fluorescent signal of each well was read by a fluorescent microplate reader (excitation at 435 nm and emission at 555 nm).
(§2) FIG. 5A represented the results of the equilibrium AMACR total binding assays using the fluorescent ELAA format for AMC51, AMC55, and AMC56.

[2] = target: Bovine serum albumin (BSA) (Bos taurus, UniProt P02769 P02769:25-607); test: ELAA, 0.5 uM aptamer, 0.2 uM protein; conditions: tags: Sigma-Aldrich; label: biotin; stem-loops, B-form-like CD
Chain of Bovine serum albumin (BSA) (P02769 25-607, one chain of several): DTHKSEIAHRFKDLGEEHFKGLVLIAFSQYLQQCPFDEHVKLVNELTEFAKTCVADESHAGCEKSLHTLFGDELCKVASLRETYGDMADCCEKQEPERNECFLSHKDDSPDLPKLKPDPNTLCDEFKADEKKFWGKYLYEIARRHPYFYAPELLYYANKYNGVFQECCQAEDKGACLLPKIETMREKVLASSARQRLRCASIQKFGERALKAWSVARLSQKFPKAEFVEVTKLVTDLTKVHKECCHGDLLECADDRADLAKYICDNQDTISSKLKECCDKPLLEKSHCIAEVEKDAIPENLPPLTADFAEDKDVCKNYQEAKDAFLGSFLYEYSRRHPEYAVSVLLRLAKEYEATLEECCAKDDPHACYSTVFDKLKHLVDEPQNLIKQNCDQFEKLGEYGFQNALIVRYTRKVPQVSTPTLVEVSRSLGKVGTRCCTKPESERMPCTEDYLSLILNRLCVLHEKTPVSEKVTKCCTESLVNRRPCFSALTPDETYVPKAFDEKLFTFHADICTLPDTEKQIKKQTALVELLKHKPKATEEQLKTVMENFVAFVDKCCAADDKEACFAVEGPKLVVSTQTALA
Method: as §1, §2

[3] = target: T2, AMACR (alpha-methylacyl-CoA racemase, isoform CRA_c), homemade recombinant (Homo sapiens, UniProt Q9UHK6 Q9UHK6:1-382); test: apparent Kd; fluorescent ELAA, same buffer, room temperature; conditions: label: biotin; stem-loops, B-form-like CD
T2 sequence: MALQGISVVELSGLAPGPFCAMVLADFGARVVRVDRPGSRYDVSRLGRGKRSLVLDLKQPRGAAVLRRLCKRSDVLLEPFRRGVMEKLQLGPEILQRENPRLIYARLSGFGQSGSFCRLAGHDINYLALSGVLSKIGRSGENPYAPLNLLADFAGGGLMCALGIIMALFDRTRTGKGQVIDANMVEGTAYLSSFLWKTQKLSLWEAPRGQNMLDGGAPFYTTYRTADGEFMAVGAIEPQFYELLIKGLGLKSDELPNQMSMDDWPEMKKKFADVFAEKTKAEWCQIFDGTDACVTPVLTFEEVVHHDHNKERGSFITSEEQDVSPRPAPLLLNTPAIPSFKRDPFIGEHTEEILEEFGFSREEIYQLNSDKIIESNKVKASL
Method: as §1, with “Then each protein-coated well was added with 100 μL of aptamer solution (in the selection buffer) and was incubated at room temperature for 1 h followed by the same wash procedure. After that, each well was added with two drops (ca. 100 μL) of an alkaline phosphatase-conjugated streptavidin (Strep-AP) solution (0.003 mg/mL) (Abcam) and incubated at room temperature for 30 min followed by the washes. For fluorescent signal development, each well was added with 100 μL of AttoPhos® AP fluorescent substrate solution (Promega) and incubated in dark for at least 15 min.” left out, “nm). […]” for “nm).”

[4] = target: T1, Human serum albumin (HSA); test: ELAA, 0.5 uM aptamer, 0.2 uM protein; also no significant cross-reactivity in FIG. 6 dose series; conditions: tags: Sigma-Aldrich; label: biotin; stem-loops, B-form-like CD
Method: as §1, with “Then each protein-coated well was added with 100 μL of aptamer solution (in the selection buffer) and was incubated at room temperature for 1 h followed by the same wash procedure. After that, each well was added with two drops (ca. 100 μL) of an alkaline phosphatase-conjugated streptavidin (Strep-AP) solution (0.003 mg/mL) (Abcam) and incubated at room temperature for 30 min followed by the washes. For fluorescent signal development, each well was added with 100 μL of AttoPhos® AP fluorescent substrate solution (Promega) and incubated in dark for at least 15 min.” left out, “nm). […]” for “nm).”

[5] = target: T2, AMACR (alpha-methylacyl-CoA racemase, …); test: apparent Kd; fluorescent ELAA, AMACR coated at 0.2 uM; 50 mM Tris/HCl, 100 mM NaCl, 4 mM KCl, 2.5 mM MgCl2, 1 mM CaCl2, pH 7.4, room temperature; conditions: label: biotin; stem-loops, B-form-like CD
Method: as §1, with “Then each protein-coated well was added with 100 μL of aptamer solution (in the selection buffer) and was incubated at room temperature for 1 h followed by the same wash procedure. After that, each well was added with two drops (ca. 100 μL) of an alkaline phosphatase-conjugated streptavidin (Strep-AP) solution (0.003 mg/mL) (Abcam) and incubated at room temperature for 30 min followed by the washes. For fluorescent signal development, each well was added with 100 μL of AttoPhos® AP fluorescent substrate solution (Promega) and incubated in dark for at least 15 min.” left out, “nm). […]” for “nm).”

T1 sequence (P02768 25-609, one chain of several): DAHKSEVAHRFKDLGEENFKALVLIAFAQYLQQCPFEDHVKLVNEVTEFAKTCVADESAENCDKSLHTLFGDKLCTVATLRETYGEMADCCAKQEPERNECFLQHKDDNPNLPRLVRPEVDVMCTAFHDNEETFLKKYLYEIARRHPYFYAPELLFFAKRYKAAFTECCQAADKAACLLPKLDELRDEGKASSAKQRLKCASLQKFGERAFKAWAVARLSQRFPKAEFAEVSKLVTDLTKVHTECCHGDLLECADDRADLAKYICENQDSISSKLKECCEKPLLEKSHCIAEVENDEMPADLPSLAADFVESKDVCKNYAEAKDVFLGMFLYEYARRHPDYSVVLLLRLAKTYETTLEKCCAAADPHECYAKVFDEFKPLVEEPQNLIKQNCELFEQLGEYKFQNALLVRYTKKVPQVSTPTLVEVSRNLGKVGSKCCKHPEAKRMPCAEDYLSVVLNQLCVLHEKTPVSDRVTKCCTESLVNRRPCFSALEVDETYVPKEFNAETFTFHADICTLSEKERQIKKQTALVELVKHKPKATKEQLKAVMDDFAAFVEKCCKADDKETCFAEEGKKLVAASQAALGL

B1: AMC56 (ssDNA)
DNA: CCCTACGGCGCTAACCCAGCTACTCTAGAACCCATTATATTTTGGGCCACCGTGCTACAA
B1 was tested, and the binding result [1] was “no binding”, the binding result [2] was “no binding” and the Kd [3] was 65 nM.

B2: AMC51 (ssDNA)
DNA: CCCTACGGCGCTAACCCATGCTACGAATTCGTTGTTAAACAATAGGCCACCGTGCTACAA
For B2, the binding result [4] was “no binding”, the binding result [2] was “no binding” and the Kd [5] was 49 nM.

B3: AMC55 (ssDNA)
DNA: CCCTACGGCGCTAACCAGTATGTTCCGGATTGGAGAGCTCCTGTTGCCACCGTGCTACAA
B3 was tested, and the binding result [1] was “no binding”, the binding result [2] was “no binding” and the Kd [3] was 139 nM.
